This passage reports hFcRN Relative Retention Time results from US20250163168A1, “NOVEL ANTIBODIES AND ANTIBODY CONJUGATES FOR THE TREATMENT OF METABOLIC DISORDERS” (PFIZER INC., priority 2023, published 2025).

This test concerns the target biotinylated human FcRn (hFcRn) (human) (UniProt P55899). The test is described as follows: human FcRn affinity column, pH gradient 5.5 to 8.8; retention time relative to the assay control mAb-A (N = 2).

Sequence of biotinylated human FcRn (hFcRn) (human) (P55899 24-297 limits assumed, form in doubt, chain 1 of 2): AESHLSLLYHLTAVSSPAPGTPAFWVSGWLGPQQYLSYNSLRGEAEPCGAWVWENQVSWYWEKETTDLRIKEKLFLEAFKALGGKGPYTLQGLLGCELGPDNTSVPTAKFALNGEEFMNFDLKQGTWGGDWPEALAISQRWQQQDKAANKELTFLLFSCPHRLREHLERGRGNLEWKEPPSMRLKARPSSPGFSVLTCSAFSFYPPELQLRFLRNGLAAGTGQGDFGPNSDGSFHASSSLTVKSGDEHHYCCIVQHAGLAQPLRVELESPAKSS
Sequence of biotinylated human FcRn (hFcRn) (human) (chain, as listed by the source limits assumed, form in doubt, chain 2 of 2): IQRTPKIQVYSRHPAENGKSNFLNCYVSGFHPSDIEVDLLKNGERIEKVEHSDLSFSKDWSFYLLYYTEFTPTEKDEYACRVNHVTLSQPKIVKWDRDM

“negative control (polyreactivity assays) (antibody)” returned a hFcRN Relative Retention Time of 0.8.

In turn, “positive control (polyreactivity assays) (antibody)” displayed a hFcRN Relative Retention Time of 4.15.
